Measurements as given in publication PMC11039692, “SRY-Box transcription factor 9 triggers YAP nuclear entry via direct interaction in tumors” (Signal Transduction and Targeted Therapy, 2024).

B1: SOX9-HMG domain (aa 98–181) (domain or fragment)
chain: not shown
notes: SOX9 HMG domain, residues 98-181; The limits 98-181 are printed for the MST with YAP protein; source: Escherichia coli, purified

Key:
[1] = target: T1, His-tagged YAP purified from Escherichia coli (human, UniProt P46937 1-504); test: MST; SOX9-HMG (aa 98–181) with YAP protein; which of the two was labelled is not told; 50 mM Tris-HCl pH 7.4, 150 mM NaCl, 0.05% Tween-20; room temperature; conditions: both partners purified
T1 construct: YAP, recombinant; Labelled with RED-tris-NTA 2nd Generation dye where it was the labelled partner; also called YAP protein; source: Escherichia coli, purified

[2] = target: T1, His-tagged YAP purified from …; test: MST; His-tagged YAP labelled with 25 nM RED-tris-NTA 2nd Generation dye, SOX9 peptide serially diluted; 50 mM Tris-HCl pH 7.4, 150 mM NaCl, 0.05% Tween-20; room temperature; 40% LED power, medium MST power; conditions: both partners purified

T1 sequence (P46937 whole entry, the tested form may be a part): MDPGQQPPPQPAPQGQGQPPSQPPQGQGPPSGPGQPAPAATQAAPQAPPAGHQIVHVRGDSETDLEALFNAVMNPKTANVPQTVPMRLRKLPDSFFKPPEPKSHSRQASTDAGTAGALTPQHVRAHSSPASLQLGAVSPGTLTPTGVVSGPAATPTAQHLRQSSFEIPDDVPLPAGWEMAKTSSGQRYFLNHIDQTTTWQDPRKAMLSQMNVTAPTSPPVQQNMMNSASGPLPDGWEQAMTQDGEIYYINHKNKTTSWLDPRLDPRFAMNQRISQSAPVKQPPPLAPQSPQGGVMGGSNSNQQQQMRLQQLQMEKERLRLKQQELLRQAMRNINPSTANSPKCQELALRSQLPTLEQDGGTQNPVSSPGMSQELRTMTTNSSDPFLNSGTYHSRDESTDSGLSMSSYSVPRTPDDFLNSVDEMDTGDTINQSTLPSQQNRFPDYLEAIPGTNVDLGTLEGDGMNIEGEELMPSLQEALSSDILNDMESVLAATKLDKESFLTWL

Binder	Kd [1] [nM]	Kd [2] [nM]
B1	540	
AFMVWAQAARRKLADQ (peptide, UniProt P48436 111-126, looked up) [peptide S-A1 (SOX9 amino acids 111–126)]		2200
RVNGSSKNKPHVKRPMNAFMVWAQAARRKLADQ (peptide, UniProt P48436 94-126, looked up) [nNLS-containing fragment of SOX9 (aa 94–126)]		1100
